Laboratory results taken from paper doi:10.1101/2020.04.20.050518.

Biological target: 50S ribosomal subunit
Test: cryo-EM 2D classification

Question: How did the stoichiometry N turn out when 50S ribosomal subunit (complex) was run?
Answer: Its stoichiometry N is 2.
